Source: article PMC10336096

How the values were obtained:
[1] = target: trapped dimer (CXCL8^R26C) (human); test: native MS; nanoESI-MS under non-denaturing conditions, 200 mM ammonium acetate; 5‒20 μM protein (methods; 2–7 μM in the results for the wild type); monomer to dimer
[2] = target: CXC chemokine receptor 1 (CXCR1) (human) (UniProt P25024)
[3] = target: wild-type CXCL8^1–72 (human); test: native MS; nanoESI-MS under non-denaturing conditions, 200 mM ammonium acetate; 5‒20 μM protein (methods; 2–7 μM in the results for the wild type); monomer to dimer

Chain of CXC chemokine receptor 1 (CXCR1) (human) (P25024 whole entry): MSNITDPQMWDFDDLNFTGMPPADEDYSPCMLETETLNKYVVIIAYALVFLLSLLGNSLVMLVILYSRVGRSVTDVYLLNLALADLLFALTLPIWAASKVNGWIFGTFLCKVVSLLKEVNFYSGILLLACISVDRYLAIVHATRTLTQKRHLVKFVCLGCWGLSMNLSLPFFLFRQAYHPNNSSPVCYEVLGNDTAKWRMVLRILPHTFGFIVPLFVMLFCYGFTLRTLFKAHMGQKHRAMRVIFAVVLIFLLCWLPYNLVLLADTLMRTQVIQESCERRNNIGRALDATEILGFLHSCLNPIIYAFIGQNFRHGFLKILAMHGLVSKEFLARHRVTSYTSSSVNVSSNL

Row | stoichiometry N [1] | NanoBiT Gi1 dissociation assay in HEK293A cells; fold higher concentration needed than the trapped monomer (CXCL8^1–65) to elicit a response from CXCR1 [2] [fold] | NanoBiT Gi1 dissociation assay in HEK293A cells; fold higher concentration needed than the wild-type CXCL8 to elicit a response from CXCR1 [2] [fold] | stoichiometry N [3] | Substance
1 | 2 | 32 | 85 | – | trapped dimer (CXCL8^R26C) (ligand)
2 | – | – | – | 2 | wild-type CXCL8^1–72 (ligand)
